Measured values taken from patent US8357656B2, “Natriuretic peptide receptor-C agonists” (Mayo Foundation for Medical Education and Research, priority 2007, dated 2013).

What was measured:
rat NPR-A = biological target: T1, rat NPR-A (Rattus norvegicus, UniProt P18910); assay: cGMP production in HEK293 cells stably expressing rat NPR-A; type: cell-based; conditions: stimulated for 3 minutes, cGMP RIA (FIG. 1)
T1 construct: expressed in transfected cells; host or cells: HEK293 (293GCA cells)
T1 sequence (P18910 29-1057): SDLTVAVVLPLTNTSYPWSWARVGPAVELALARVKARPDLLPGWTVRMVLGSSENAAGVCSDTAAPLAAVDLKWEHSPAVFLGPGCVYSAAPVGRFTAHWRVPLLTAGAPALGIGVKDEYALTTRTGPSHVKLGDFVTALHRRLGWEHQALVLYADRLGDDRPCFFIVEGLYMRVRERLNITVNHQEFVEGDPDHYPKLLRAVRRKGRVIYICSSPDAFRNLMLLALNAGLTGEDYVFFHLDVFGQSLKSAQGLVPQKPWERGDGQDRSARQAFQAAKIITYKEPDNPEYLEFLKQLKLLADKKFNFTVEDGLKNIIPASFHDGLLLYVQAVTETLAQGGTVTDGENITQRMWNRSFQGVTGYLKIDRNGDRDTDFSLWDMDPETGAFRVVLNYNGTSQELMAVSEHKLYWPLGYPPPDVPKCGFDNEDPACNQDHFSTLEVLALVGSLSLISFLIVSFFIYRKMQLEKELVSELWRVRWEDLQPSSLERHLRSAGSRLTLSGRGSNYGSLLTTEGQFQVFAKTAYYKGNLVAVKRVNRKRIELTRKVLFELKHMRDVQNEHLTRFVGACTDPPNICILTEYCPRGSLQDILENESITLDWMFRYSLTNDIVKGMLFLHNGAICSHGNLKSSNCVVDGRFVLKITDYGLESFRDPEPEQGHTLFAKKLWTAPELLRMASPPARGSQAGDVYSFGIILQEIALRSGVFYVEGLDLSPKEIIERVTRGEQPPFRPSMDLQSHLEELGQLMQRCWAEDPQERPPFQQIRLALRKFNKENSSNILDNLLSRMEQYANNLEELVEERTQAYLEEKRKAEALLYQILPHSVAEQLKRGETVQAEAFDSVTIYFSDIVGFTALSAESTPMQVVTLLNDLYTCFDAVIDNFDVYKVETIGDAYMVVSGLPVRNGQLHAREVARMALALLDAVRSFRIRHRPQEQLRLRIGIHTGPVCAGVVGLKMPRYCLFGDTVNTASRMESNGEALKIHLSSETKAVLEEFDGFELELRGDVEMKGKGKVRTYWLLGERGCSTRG
Description: (§1) HEK293 cells stably expressing rat NPR-A or NPR-B were prepared using methods similar to those described elsewhere (Fan et al., Mol. Pharmacol., 67:174-83 (2005); and Bryan and Potter, J. Biol. Chem., 277:16041-16047 (2002)). The cells were maintained in Dulbecco's modified Eagle's medium (DMEM) supplemented with 10% FBS, 100 units/mL penicillin, 100 μg/mL streptomycin, and 200 μg/mL G418. The cells were plated in 48-well plates and grown to 90% confluency. On the day of the assay, the cells were incubated in serum-free medium for 4 hours. The cells were pretreated for 10 minutes at 37° C. in DMEM containing 25 mM HEPES, pH 7.4 and 0.5 mM 1-methyl-3-isobutylxanthine by aspirating the starvation medium. After pretreatment, the medium was replaced with the same medium containing the indicated concentrations of natriuretic peptides. The cells were stimulated for 3 minutes with CNP, rat BNP, human BNP, ASBNP, or ASBNP.1. The reaction was stopped by aspiration of the medium and addition of 200 μL ice-cold 80% ethanol. Cyclic GMP concentrations were estimated from an aliquot of the ethanol extract using a Perkin Elmer cGMP RIA kit without acetylation as described elsewhere (Bryan and Potter, J. Biol. Chem., 277:16041-16047 (2002); and Abbey and Potter, J. Biol. Chem., 277:42423-30 (2002)).

human NPR-C = biological target: T2, human NPR-C (Homo sapiens, UniProt P17342); assay: Binding to human NPR-C; conditions: FIG. 3
T2 sequence (P17342 27-541): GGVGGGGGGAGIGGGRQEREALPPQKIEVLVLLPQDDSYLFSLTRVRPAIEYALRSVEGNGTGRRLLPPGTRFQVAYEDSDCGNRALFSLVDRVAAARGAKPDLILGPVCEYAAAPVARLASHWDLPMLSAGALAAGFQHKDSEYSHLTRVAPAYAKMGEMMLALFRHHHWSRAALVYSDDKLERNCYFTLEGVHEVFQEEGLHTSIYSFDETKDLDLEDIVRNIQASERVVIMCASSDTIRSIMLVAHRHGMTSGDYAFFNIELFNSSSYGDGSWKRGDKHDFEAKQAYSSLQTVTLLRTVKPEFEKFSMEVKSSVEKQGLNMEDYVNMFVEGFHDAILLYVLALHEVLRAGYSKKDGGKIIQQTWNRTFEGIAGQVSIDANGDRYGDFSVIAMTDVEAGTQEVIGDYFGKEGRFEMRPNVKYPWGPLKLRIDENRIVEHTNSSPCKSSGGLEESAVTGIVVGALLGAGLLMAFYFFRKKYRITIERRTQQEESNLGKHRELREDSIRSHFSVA
Description: Human BNP and ASBNP.1 binding to human NPR-C was assessed using methods similar to those described elsewhere (Fan et al., Mol. Pharmacol., 67:174-83 (2005)).

rat NPR-B = biological target: T3, rat NPR-B (Rattus norvegicus, UniProt P16067); assay: cGMP production in HEK293 cells stably expressing rat NPR-B; type: cell-based; conditions: stimulated for 3 minutes, cGMP RIA (FIG. 2)
T3 construct: expressed in transfected cells; host or cells: HEK293 (293GCB cells)
T3 sequence (P16067 17-1047): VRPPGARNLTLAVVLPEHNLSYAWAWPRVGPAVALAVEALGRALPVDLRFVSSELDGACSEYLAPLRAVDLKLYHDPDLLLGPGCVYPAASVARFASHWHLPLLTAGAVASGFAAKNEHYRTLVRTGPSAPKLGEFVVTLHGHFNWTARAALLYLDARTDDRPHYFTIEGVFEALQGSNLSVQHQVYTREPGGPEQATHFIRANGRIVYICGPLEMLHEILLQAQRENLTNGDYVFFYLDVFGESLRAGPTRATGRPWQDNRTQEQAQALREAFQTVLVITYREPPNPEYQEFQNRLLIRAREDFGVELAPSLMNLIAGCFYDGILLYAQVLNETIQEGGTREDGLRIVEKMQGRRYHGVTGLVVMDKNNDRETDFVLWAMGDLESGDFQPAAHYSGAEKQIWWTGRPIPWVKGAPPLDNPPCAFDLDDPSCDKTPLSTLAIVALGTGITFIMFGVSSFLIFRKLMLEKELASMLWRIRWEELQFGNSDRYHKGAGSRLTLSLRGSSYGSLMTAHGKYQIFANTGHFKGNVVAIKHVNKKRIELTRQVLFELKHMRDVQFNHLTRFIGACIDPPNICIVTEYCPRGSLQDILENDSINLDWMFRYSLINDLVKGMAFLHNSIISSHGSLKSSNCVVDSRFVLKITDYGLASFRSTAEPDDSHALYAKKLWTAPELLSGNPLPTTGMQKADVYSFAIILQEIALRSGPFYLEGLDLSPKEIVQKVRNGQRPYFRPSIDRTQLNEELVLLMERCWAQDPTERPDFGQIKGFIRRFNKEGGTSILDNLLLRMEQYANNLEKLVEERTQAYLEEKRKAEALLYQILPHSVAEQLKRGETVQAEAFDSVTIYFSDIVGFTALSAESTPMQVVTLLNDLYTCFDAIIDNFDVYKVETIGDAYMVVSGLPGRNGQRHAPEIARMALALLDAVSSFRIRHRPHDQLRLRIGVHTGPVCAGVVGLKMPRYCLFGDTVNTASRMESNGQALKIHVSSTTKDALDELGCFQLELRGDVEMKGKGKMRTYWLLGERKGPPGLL
Description: as §1

binding to human NPR-C (human NPR-C)	activation of cells expressing rat NPR-B (cGMP) (rat NPR-B)	Substance	activation of cells expressing rat NPR-A (cGMP) (rat NPR-A)
exhibited binding to human NPR-C		ASBNP.1: ASBNP.1 polypeptide that is 42 amino acid residues in length (SEQ ID NO:1) (SPKMVQGSGCFGRKMDRISSSSGLGCKGKHPLPPRPPSPIPV)	did not exhibit any activity
	exhibited little, if any, activity	ASBNP.2: ASBNP.2 polypeptide, 60 amino acid residues in length with an alanine at position 43 (SEQ ID NO:3) (SPKMVQGSGCFGRKMDRISSSSGLGCKGKHPLPPRPPSPIPVADTVRVTLGFVVSGNHTL)	
exhibited binding to human NPR-C	exhibited little, if any, activity	BNP: human BNP, natriuretic polypeptide of myocardial cell origin; main form is a 32 amino acid polypeptide with a ring structure	activated cells expressing rat NPR-A at concentrations in the mM range
	activated cells expressing rat NPR-B	C-type natriuretic peptide [CNP]	
